Assay results published in the supplement of paper PMC9233669.
This sample holds only a part of the variants without activity.

Legend:
biotinyl-Phe-oxazolone = experiment: self-aminoacylation, catalytic enhancement (BFO) (fold over background); higher = more active; k-Seq, kA / k0A0; sequences stand for … in GGGAAUGGAUCCACAUCUACGAAUUC…UUCACUGCAGACUUGACGAAGCUG
Summary of the method: (§1)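 Each biotinyl-aminoacyl-oxazolone, at 2–1250 μM, was incubated with mutagenized RNA pools (0.43 μM) carrying a 21-nt variable region. The 50 μL reactions contained HEPES/NaCl/KCl/MgCl2/CaCl2 buffer with 5% acetonitrile at pH 6.9–7.0 and ran for 90 minutes at room temperature. After streptavidin capture, RNA was measured by qPCR in triplicate and by Illumina sequencing, and catalytic enhancement was calculated as median kA over the uncatalyzed rate from a pseudo-first-order fit of per-sequence fraction reacted.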

biotinyl-Trp-oxazolone = experiment: self-aminoacylation, catalytic enhancement (BWO) (fold over background); higher = more active; k-Seq, kA / k0A0; sequences stand for … in GGGAAUGGAUCCACAUCUACGAAUUC…UUCACUGCAGACUUGACGAAGCUG
Summary of the method: as §1

biotinyl-Met-oxazolone = experiment: self-aminoacylation, catalytic enhancement (BMO) (fold over background); higher = more active; k-Seq, kA / k0A0; sequences stand for … in GGGAAUGGAUCCACAUCUACGAAUUC…UUCACUGCAGACUUGACGAAGCUG
Summary of the method: as §1

biotinyl-Leu-oxazolone = experiment: self-aminoacylation, catalytic enhancement (BLO) (fold over background); higher = more active; k-Seq, kA / k0A0; sequences stand for … in GGGAAUGGAUCCACAUCUACGAAUUC…UUCACUGCAGACUUGACGAAGCUG
Summary of the method: as §1

biotinyl-Val-oxazolone = experiment: self-aminoacylation, catalytic enhancement (BVO) (fold over background); higher = more active; k-Seq, kA / k0A0; sequences stand for … in GGGAAUGGAUCCACAUCUACGAAUUC…UUCACUGCAGACUUGACGAAGCUG
Summary of the method: as §1

biotinyl-Ile-oxazolone = experiment: self-aminoacylation, catalytic enhancement (BIO) (fold over background); higher = more active; k-Seq, kA / k0A0; sequences stand for … in GGGAAUGGAUCCACAUCUACGAAUUC…UUCACUGCAGACUUGACGAAGCUG
Summary of the method: as §1

| Sequence | self-aminoacylation (biotinyl-Phe-oxazolone) | self-aminoacylation (biotinyl-Trp-oxazolone) | self-aminoacylation (biotinyl-Met-oxazolone) | self-aminoacylation (biotinyl-Leu-oxazolone) | self-aminoacylation (biotinyl-Val-oxazolone) | self-aminoacylation (biotinyl-Ile-oxazolone) |
| --- | --- | --- | --- | --- | --- | --- |
| AACUCUGCUAAUAGUCGCAAG [Fam3.1 aminoacylation ribozyme variant] | 16.4 | 5.56 | 2.46 | – | – | – |
| AAGAAUGCUAAUAGUCGCAAG [Fam3.1 aminoacylation ribozyme variant] | 12.5 | 3.69 | 2.19 | – | – | – |
| AAGACUGCUAAUAGUCGCAAG [Fam3.1 aminoacylation ribozyme variant] | 18.5 | 4.56 | 2.04 | – | – | – |
| AAGAUUGUUAAUAGUCGCAAG [Fam3.1 aminoacylation ribozyme variant] | 2.81 | 2.65 | 2.14 | – | – | – |
| AAGCUUGCUAAUAGCCGCAAG [Fam3.1 aminoacylation ribozyme variant] | 3.2 | 3.08 | 2.25 | 2.58 | – | – |
| AAGCUUGGUAAUAGUCGCAAG [Fam3.1 aminoacylation ribozyme variant] | 2.69 | 2.68 | 2.46 | 2.52 | – | – |
| AAGUUCGCUAAUAGUCGCAAU [Fam3.1 aminoacylation ribozyme variant] | 3.19 | 2.44 | 2.1 | – | 2.03 | – |
| AAGUUUGCCAAUAGUCGCACG [Fam3.1 aminoacylation ribozyme variant] | – | – | 2.3 | 2.05 | – | – |
| AAGUUUGCUAAUAGUCGCGUG [Fam3.1 aminoacylation ribozyme variant] | 8.13 | 2.15 | 2.33 | 2.15 | – | – |
| AAUACCCUGGUCAUCGAGUGG [Fam2.1 aminoacylation ribozyme variant] | 7.18 | 3.39 | 2.49 | 2.81 | – | – |
| AAUACCCUGGUCCUCGAGUGA [Fam2.1 aminoacylation ribozyme variant] | 9.54 | 3.22 | 3.08 | 3.33 | – | – |
| AAUACCCUGUUCAUCGAGUGA [Fam2.1 aminoacylation ribozyme variant] | 9.83 | 4.5 | 3 | 3.46 | 2.14 | – |
| AAUUUAGCUAAUAGUCGCAAG [Fam3.1 aminoacylation ribozyme variant] | 2.58 | – | – | – | – | 2.02 |
| AAUUUUACUAAUAGUCGCAAG [Fam3.1 aminoacylation ribozyme variant] | 2.67 | – | – | – | – | 2.01 |
| ACUACCCUCGUCAUCGAGUGA [Fam2.1 aminoacylation ribozyme variant] | 4.34 | 2.14 | 2.71 | 3.13 | 2.32 | – |
| AGUCACCUAGGUCAUCAGGUG [Fam2.2 aminoacylation ribozyme variant] | 8.84 | – | – | 2.1 | 2.09 | – |
| AUAACCCUGGUCAUCGUGUGA [Fam2.1 aminoacylation ribozyme variant] | 15.2 | 3.32 | 3.15 | 3.53 | – | – |
| AUACACCUAGGUCAUCGAGUG [Fam2.2 aminoacylation ribozyme variant] | 2.81 | 2.4 | 2.4 | 2.87 | – | – |
| AUUAACCUGGCCAUCGAGUGA [Fam2.1 aminoacylation ribozyme variant] | – | 2.78 | 2.01 | 2.11 | – | – |

| Sequence | self-aminoacylation (biotinyl-Phe-oxazolone) | self-aminoacylation (biotinyl-Trp-oxazolone) | self-aminoacylation (biotinyl-Met-oxazolone) | self-aminoacylation (biotinyl-Leu-oxazolone) | self-aminoacylation (biotinyl-Val-oxazolone) | self-aminoacylation (biotinyl-Ile-oxazolone) |
| --- | --- | --- | --- | --- | --- | --- |
| AUUACACUGGUCAUCAAGUGA [Fam2.1 aminoacylation ribozyme variant] | 3.52 | 3.18 | 2.7 | 2.31 | – | – |
| AUUACCCAGGUCAUCGUGUGA [Fam2.1 aminoacylation ribozyme variant] | 21.4 | 4.27 | 3.58 | 3.86 | – | – |
| AUUACCCUCGUCAUGGAGUGA [Fam2.1 aminoacylation ribozyme variant] | 8.82 | 2.5 | 2.81 | 3.02 | – | – |
| AUUACCCUGGGCUUCGAGUGA [Fam2.1 aminoacylation ribozyme variant] | – | 2.03 | 2.01 | – | – | – |
| AUUACCCUGGUCAUCGAGGGG [Fam2.1 aminoacylation ribozyme variant] | 2.86 | 2.23 | 2.75 | 2.42 | – | – |
| AUUACCCUGGUCGUCCAGUGA [Fam2.1 aminoacylation ribozyme variant] | 11.1 | 3.21 | 2.68 | 2.88 | – | – |
| AUUACCCUGGUCUGCGAGUGA [Fam2.1 aminoacylation ribozyme variant] | 9.18 | 2.62 | 2.15 | 2.72 | – | – |
| AUUACCCUGUUCAUCGAGUGU [Fam2.1 aminoacylation ribozyme variant] | – | 3.95 | 2.84 | 2.1 | 2.02 | – |
| AUUACUCUGGUCAUCAAGUGA [Fam2.1 aminoacylation ribozyme variant] | 4.38 | 3.07 | 2.47 | 2.29 | – | – |
| AUUAGCCUGGUCAUCGAGUGG [Fam2.1 aminoacylation ribozyme variant] | 2.98 | 3.05 | 2.81 | 2.35 | – | – |
| AUUCACCCAGGUCAUCGGGUU [Fam2.2 aminoacylation ribozyme variant] | 6.46 | – | 2.16 | 2.65 | 2.14 | – |
| AUUCACCGAGGUCAUCGGUUG [Fam2.2 aminoacylation ribozyme variant] | 29 | 2.6 | 3.52 | 4.89 | – | – |
| AUUCACCUAAUUCAUCGGGUG [Fam2.2 aminoacylation ribozyme variant] | 15.5 | 3.32 | 2.68 | 3.05 | – | – |
| AUUCACCUAGAUAAUCGGGUG [Fam2.2 aminoacylation ribozyme variant] | 12.9 | – | 2.25 | 2.79 | – | – |
| AUUCACCUAGGACAUCGGGGG [Fam2.2 aminoacylation ribozyme variant] | 10.4 | – | 3.13 | 2.63 | 2.18 | – |
| AUUCACCUAGGUAACCGGGUG [Fam2.2 aminoacylation ribozyme variant] | 11 | 2.56 | 2.57 | 2.85 | – | – |
| AUUCACCUAGGUCAUCGCGUC [Fam2.2 aminoacylation ribozyme variant] | 9.82 | 2.85 | 2.3 | – | 2.15 | – |
| AUUCACCUCGGUCAUCGAGUG [Fam2.2 aminoacylation ribozyme variant] | 13.1 | 2.51 | 2.33 | 2.88 | – | – |
| AUUCUCCUAGGUCAUAGGGUG [Fam2.2 aminoacylation ribozyme variant] | 8.67 | – | 2.33 | 2.94 | – | – |

| Sequence | self-aminoacylation (biotinyl-Phe-oxazolone) | self-aminoacylation (biotinyl-Trp-oxazolone) | self-aminoacylation (biotinyl-Met-oxazolone) | self-aminoacylation (biotinyl-Leu-oxazolone) | self-aminoacylation (biotinyl-Val-oxazolone) | self-aminoacylation (biotinyl-Ile-oxazolone) |
| --- | --- | --- | --- | --- | --- | --- |
| CCACAACUCAAGCAAUCGGUC [Fam1B.1 aminoacylation ribozyme variant] | 2.62 | – | – | – | 2.23 | – |
| CCACACGUCAAGCAAUCCGUC [Fam1B.1 aminoacylation ribozyme variant] | – | 2.45 | – | – | 2.22 | – |
| CCACACUCCAAGCAUUCGGUC [Fam1B.1 aminoacylation ribozyme variant] | – | – | – | – | 2.83 | – |
| CCACACUGCAAGCAAUCGGGC [Fam1B.1 aminoacylation ribozyme variant] | – | 3 | – | – | 2.56 | – |
| CCACACUUCAAGCAAUGGGCC [Fam1B.1 aminoacylation ribozyme variant] | – | – | – | – | 2.81 | – |
| CCACACUUCAAGCCAUCGGUU [Fam1B.1 aminoacylation ribozyme variant] | 2.81 | 2.06 | – | – | 2.18 | – |
| CCACACUUGAAGCAAUCGGCC [Fam1B.1 aminoacylation ribozyme variant] | – | 2.29 | – | 2.24 | 3.19 | – |
| CCCCACUCCAAGCAAUCGGUC [Fam1B.1 aminoacylation ribozyme variant] | 8.62 | 6.53 | – | – | 2.19 | – |
| CCCCACUUCAAGCAGUCGGUC [Fam1B.1 aminoacylation ribozyme variant] | 3.77 | 3.29 | – | 2.2 | 2.23 | – |
| CCGCACCUCAAGCAAUCGGUC [Fam1B.1 aminoacylation ribozyme variant] | 6.19 | 5.62 | – | – | 2.16 | – |
| CCGCUUCAAACAAUCGGUCUG [Fam1A.1 aminoacylation ribozyme variant] | 257 | 95.9 | 2.68 | 4.82 | 2.4 | – |
| CUACUUCAAACAAUCGAUGUG [Fam1A.1 aminoacylation ribozyme variant] | 3.31 | – | 2.24 | – | – | – |
| CUACUUCAAACAAUCGGCCGG [Fam1A.1 aminoacylation ribozyme variant] | 2.44 | – | – | – | – | 2.09 |
| CUUACCCUGCUCAUCGAGUGA [Fam2.1 aminoacylation ribozyme variant] | 2.86 | 2.2 | 2.57 | 2.19 | – | – |
| CUUACCCUGGUCAUCGAGGGA [Fam2.1 aminoacylation ribozyme variant] | – | – | – | – | 2.04 | – |
| CUUACCCUGGUCAUCGAGUGC [Fam2.1 aminoacylation ribozyme variant] | 4.77 | 3.03 | 2.91 | 3.18 | – | – |
| GAGUUUGCUAAUAGUCGCAAU [Fam3.1 aminoacylation ribozyme variant] | 2.19 | 3.41 | – | – | – | 2.21 |
| UUUACCCUGGUCAUCGAGGGA [Fam2.1 aminoacylation ribozyme variant] | 3.55 | 2.85 | – | – | 2.19 | – |
